Drawing on the Human Domainome abundance scans (Beltran et al. 2025), this text covers abundance fitness for 34 variants.

± gives the uncertainty stated by the source.

The chains are these.
B1: Receptor-interacting serine/threonine-protein kinase 2, residues 438 to 518; numbered along this chain, O43353 (parent)
chain: QWIQSKREDIVNQMTEACLNQSLDALLSRDLIMKEDYELVSTKPTRTSKVRQLLDTTDIQGEEFAKVIVQKLKDNKQMGLQ

The variants in this series derive from B1. The series is described as follows: abundance fitness (aPCA) (normalised: wild type 0, dead -1); higher = more abundant; growth selection in yeast, the domain comes from the species named. Particulars: Homo sapiens.
With QWIQSKRFDIVNQMTEACLNQSLDALLSRDLIMKEDYELVSTKPTRTSKVRQLLDTTDIQGEEFAKVIVQKLKDNKQMGLQ [E8F], the abundance fitness is -0.691 ± 0.32.
As for QWIQSKRIDIVNQMTEACLNQSLDALLSRDLIMKEDYELVSTKPTRTSKVRQLLDTTDIQGEEFAKVIVQKLKDNKQMGLQ [E8I], the figure is -0.768 ± 0.45.
As for QWIQSKRKDIVNQMTEACLNQSLDALLSRDLIMKEDYELVSTKPTRTSKVRQLLDTTDIQGEEFAKVIVQKLKDNKQMGLQ [E8K], the figure is -0.319 ± 0.23.
On to QWIQSKRPDIVNQMTEACLNQSLDALLSRDLIMKEDYELVSTKPTRTSKVRQLLDTTDIQGEEFAKVIVQKLKDNKQMGLQ [E8P], for which the abundance fitness was -0.527 ± 0.066.
As for QWIQSKRLDIVNQMTEACLNQSLDALLSRDLIMKEDYELVSTKPTRTSKVRQLLDTTDIQGEEFAKVIVQKLKDNKQMGLQ [E8L], the figure is -0.507 ± 0.079; as for QWIQSKRQDIVNQMTEACLNQSLDALLSRDLIMKEDYELVSTKPTRTSKVRQLLDTTDIQGEEFAKVIVQKLKDNKQMGLQ [E8Q], -0.569 ± 0.11; as for QWIQSKRWDIVNQMTEACLNQSLDALLSRDLIMKEDYELVSTKPTRTSKVRQLLDTTDIQGEEFAKVIVQKLKDNKQMGLQ [E8W], -0.918 ± 0.12.
As for QWIQSKRVDIVNQMTEACLNQSLDALLSRDLIMKEDYELVSTKPTRTSKVRQLLDTTDIQGEEFAKVIVQKLKDNKQMGLQ [E8V], the figure is -0.301 ± 0.072; as for QWIQSKRDDIVNQMTEACLNQSLDALLSRDLIMKEDYELVSTKPTRTSKVRQLLDTTDIQGEEFAKVIVQKLKDNKQMGLQ [E8D], 0.031 ± 0.24; as for QWIQSKRTDIVNQMTEACLNQSLDALLSRDLIMKEDYELVSTKPTRTSKVRQLLDTTDIQGEEFAKVIVQKLKDNKQMGLQ [E8T], -0.209 ± 0.077.
As for QWIQSKRMDIVNQMTEACLNQSLDALLSRDLIMKEDYELVSTKPTRTSKVRQLLDTTDIQGEEFAKVIVQKLKDNKQMGLQ [E8M], the figure is -0.272 ± 0.16; as for QWIQSKRGDIVNQMTEACLNQSLDALLSRDLIMKEDYELVSTKPTRTSKVRQLLDTTDIQGEEFAKVIVQKLKDNKQMGLQ [E8G], -0.29 ± 0.057; as for QWIQSKRHDIVNQMTEACLNQSLDALLSRDLIMKEDYELVSTKPTRTSKVRQLLDTTDIQGEEFAKVIVQKLKDNKQMGLQ [E8H], -0.884 ± 0.28.
Regarding QWIQSKRCDIVNQMTEACLNQSLDALLSRDLIMKEDYELVSTKPTRTSKVRQLLDTTDIQGEEFAKVIVQKLKDNKQMGLQ [E8C], the abundance fitness was -0.994 ± 0.41.
As for QWIQSKRSDIVNQMTEACLNQSLDALLSRDLIMKEDYELVSTKPTRTSKVRQLLDTTDIQGEEFAKVIVQKLKDNKQMGLQ [E8S], the figure is -0.276 ± 0.068; as for QWIQSKRRDIVNQMTEACLNQSLDALLSRDLIMKEDYELVSTKPTRTSKVRQLLDTTDIQGEEFAKVIVQKLKDNKQMGLQ [E8R], -0.36 ± 0.055.
Consider QWIQSKREDAVNQMTEACLNQSLDALLSRDLIMKEDYELVSTKPTRTSKVRQLLDTTDIQGEEFAKVIVQKLKDNKQMGLQ [I10A], for which the abundance fitness was -1.04 ± 0.31.
As for QWIQSKRESIVNQMTEACLNQSLDALLSRDLIMKEDYELVSTKPTRTSKVRQLLDTTDIQGEEFAKVIVQKLKDNKQMGLQ [D9S], the figure is -0.303 ± 0.07; as for QWIQSKREVIVNQMTEACLNQSLDALLSRDLIMKEDYELVSTKPTRTSKVRQLLDTTDIQGEEFAKVIVQKLKDNKQMGLQ [D9V], -0.172 ± 0.078; as for QWIQSKREHIVNQMTEACLNQSLDALLSRDLIMKEDYELVSTKPTRTSKVRQLLDTTDIQGEEFAKVIVQKLKDNKQMGLQ [D9H], -0.336 ± 0.19.
Take QWIQSKREPIVNQMTEACLNQSLDALLSRDLIMKEDYELVSTKPTRTSKVRQLLDTTDIQGEEFAKVIVQKLKDNKQMGLQ [D9P]: the abundance fitness is -0.898 ± 0.15.
As for QWIQSKREFIVNQMTEACLNQSLDALLSRDLIMKEDYELVSTKPTRTSKVRQLLDTTDIQGEEFAKVIVQKLKDNKQMGLQ [D9F], the figure is -0.498 ± 0.28; as for QWIQSKREIIVNQMTEACLNQSLDALLSRDLIMKEDYELVSTKPTRTSKVRQLLDTTDIQGEEFAKVIVQKLKDNKQMGLQ [D9I], 0.255 ± 0.16.
As for QWIQSKREAIVNQMTEACLNQSLDALLSRDLIMKEDYELVSTKPTRTSKVRQLLDTTDIQGEEFAKVIVQKLKDNKQMGLQ [D9A], the figure is -0.288 ± 0.095; as for QWIQSKREYIVNQMTEACLNQSLDALLSRDLIMKEDYELVSTKPTRTSKVRQLLDTTDIQGEEFAKVIVQKLKDNKQMGLQ [D9Y], -0.107 ± 0.15; as for QWIQSKREMIVNQMTEACLNQSLDALLSRDLIMKEDYELVSTKPTRTSKVRQLLDTTDIQGEEFAKVIVQKLKDNKQMGLQ [D9M], -0.328 ± 0.19.
On to QWIQSKREEIVNQMTEACLNQSLDALLSRDLIMKEDYELVSTKPTRTSKVRQLLDTTDIQGEEFAKVIVQKLKDNKQMGLQ [D9E], for which the abundance fitness is -0.317 ± 0.15.
As for QWIQSKRECIVNQMTEACLNQSLDALLSRDLIMKEDYELVSTKPTRTSKVRQLLDTTDIQGEEFAKVIVQKLKDNKQMGLQ [D9C], the figure is -0.341 ± 0.19; as for QWIQSKREGIVNQMTEACLNQSLDALLSRDLIMKEDYELVSTKPTRTSKVRQLLDTTDIQGEEFAKVIVQKLKDNKQMGLQ [D9G], -0.532 ± 0.092.
As for QWIQSKREWIVNQMTEACLNQSLDALLSRDLIMKEDYELVSTKPTRTSKVRQLLDTTDIQGEEFAKVIVQKLKDNKQMGLQ [D9W], the figure is -0.147 ± 0.088; as for QWIQSKREKIVNQMTEACLNQSLDALLSRDLIMKEDYELVSTKPTRTSKVRQLLDTTDIQGEEFAKVIVQKLKDNKQMGLQ [D9K], -0.437 ± 0.15.
As for QWIQSKRENIVNQMTEACLNQSLDALLSRDLIMKEDYELVSTKPTRTSKVRQLLDTTDIQGEEFAKVIVQKLKDNKQMGLQ [D9N], the figure is -0.731 ± 0.27.
On to QWIQSKREQIVNQMTEACLNQSLDALLSRDLIMKEDYELVSTKPTRTSKVRQLLDTTDIQGEEFAKVIVQKLKDNKQMGLQ [D9Q], for which the abundance fitness is -0.151 ± 0.077.
As for QWIQSKRETIVNQMTEACLNQSLDALLSRDLIMKEDYELVSTKPTRTSKVRQLLDTTDIQGEEFAKVIVQKLKDNKQMGLQ [D9T], the figure is -0.331 ± 0.098.
